In patent US10676749:

Tests used:
Assay in all cases: cell_activity
[1] = system: TALE-VP64 Ntf3-2 (synthetic); details: NTF3 qRT-PCR, 293 cells
[2] = system: TALE-VP64 VEGF9-1 (synthetic); details: VEGF-A ELISA, 293 cells
[3] = system: TALE-VP64 VEGF8-2 (synthetic); details: VEGF-A ELISA, 293 cells
[4] = system: TALE-VP64 VEGF1-1 (synthetic); details: VEGF-A ELISA, 293 cells; range 5.3-114 over 53 active TALEs
[5] = system: TALE-VP64 VEGF8-5 (synthetic); details: VEGF-A ELISA, 293 cells
[6] = system: TALE-VP64 VEGF7-6 (synthetic); details: VEGF-A ELISA, 293 cells
[7] = system: TALE-VP64 VEGF6-2 (synthetic); details: VEGF-A ELISA, 293 cells
[8] = system: TALE-VP64 VEGF6-5 (synthetic); details: VEGF-A ELISA, 293 cells
[9] = system: TALE-VP64 VEGF8-3 (synthetic); details: VEGF-A ELISA, 293 cells
[10] = system: TALE-VP64 VEGF5-5 (synthetic); details: VEGF-A ELISA, 293 cells
[11] = system: TALE-VP64 VEGF6-1 (synthetic); details: VEGF-A ELISA, 293 cells
[12] = system: TALE-VP64 VEGF1-5 (synthetic); details: VEGF-A ELISA, 293 cells
[13] = system: TALE-VP64 VEGF3-5 (synthetic); details: VEGF-A ELISA, 293 cells
[14] = system: TALE-VP64 VEGF3-4 (synthetic); details: VEGF-A ELISA, 293 cells
[15] = system: TALE-VP64 VEGF2-5 (synthetic); details: VEGF-A ELISA, 293 cells
[16] = system: TALE-VP64 Ntf3-3 (synthetic); details: NTF3 qRT-PCR, 293 cells
[17] = system: TALE-VP64 VEGF6-6 (synthetic); details: VEGF-A ELISA, 293 cells
[18] = system: TALE-VP64 VEGF4-3 (synthetic); details: VEGF-A ELISA, 293 cells
[19] = system: TALE-VP64 VEGF5-2 (synthetic); details: VEGF-A ELISA, 293 cells
[20] = system: TALE-VP64 VEGF7-3 (synthetic); details: VEGF-A ELISA, 293 cells
[21] = system: TALE-VP64 VEGF9-4 (synthetic); details: VEGF-A ELISA, 293 cells
[22] = system: TALE-VP64 VEGF5-3 (synthetic); details: VEGF-A ELISA, 293 cells
[23] = system: TALE-VP64 Ntf3-1 (synthetic); details: NTF3 qRT-PCR, 293 cells; weakest about 1000-fold
[24] = system: TALE-VP64 VEGF5-4 (synthetic); details: VEGF-A ELISA, 293 cells
[25] = system: TALE-VP64 VEGF3-6 (synthetic); details: VEGF-A ELISA, 293 cells
[26] = system: TALE-VP64 Ntf3-4 (synthetic); details: NTF3 qRT-PCR, 293 cells
[27] = system: TALE-VP64 VEGF7-2 (synthetic); details: VEGF-A ELISA, 293 cells
[28] = system: TALE-VP64 VEGF3-1 (synthetic); details: VEGF-A ELISA, 293 cells
[29] = system: TALE-VP64 VEGF4-6 (synthetic); details: VEGF-A ELISA, 293 cells
[30] = system: TALE-VP64 VEGF1-2 (synthetic); details: VEGF-A ELISA, 293 cells
[31] = system: TALE-VP64 VEGF3-2 (synthetic); details: VEGF-A ELISA, 293 cells
[32] = system: TALE-VP64 VEGF7-5 (synthetic); details: VEGF-A ELISA, 293 cells
[33] = system: TALE-VP64 VEGF9-6 (synthetic); details: VEGF-A ELISA, 293 cells
[34] = system: TALE-VP64 VEGF4-5 (synthetic); details: VEGF-A ELISA, 293 cells
[35] = system: TALE-VP64 VEGF7-4 (synthetic); details: VEGF-A ELISA, 293 cells
[36] = system: TALE-VP64 VEGF4-1 (synthetic); details: VEGF-A ELISA, 293 cells
[37] = system: TALE-VP64 VEGF6-4 (synthetic); details: VEGF-A ELISA, 293 cells
[38] = system: TALE-VP64 VEGF8-4 (synthetic); details: VEGF-A ELISA, 293 cells
[39] = system: TALE-VP64 VEGF2-6 (synthetic); details: VEGF-A ELISA, 293 cells
[40] = system: TALE-VP64 VEGF6-3 (synthetic); details: VEGF-A ELISA, 293 cells
[41] = system: TALE-VP64 VEGF4-2 (synthetic); details: VEGF-A ELISA, 293 cells
[42] = system: TALE-VP64 VEGF9-2 (synthetic); details: VEGF-A ELISA, 293 cells
[43] = system: TALE-VP64 VEGF9-5 (synthetic); details: VEGF-A ELISA, 293 cells
[44] = system: TALE-VP64 VEGF4-4 (synthetic); details: VEGF-A ELISA, 293 cells
[45] = system: TALE-VP64 VEGF5-6 (synthetic); details: VEGF-A ELISA, 293 cells
[46] = system: TALE-VP64 VEGF8-6 (synthetic); details: VEGF-A ELISA, 293 cells
[47] = system: TALE-VP64 VEGF1-4 (synthetic); details: VEGF-A ELISA, 293 cells; site printed with S at position 6
[48] = system: TALE-VP64 VEGF1-3 (synthetic); details: VEGF-A ELISA, 293 cells
[49] = system: TALE-VP64 VEGF8-1 (synthetic); details: VEGF-A ELISA, 293 cells
[50] = system: TALE-VP64 VEGF5-1 (synthetic); details: VEGF-A ELISA, 293 cells
[51] = system: TALE-VP64 Ntf3-5 (synthetic); details: NTF3 qRT-PCR, 293 cells
[52] = system: TALE-VP64 VEGF1-6 (synthetic); details: VEGF-A ELISA, 293 cells
[53] = system: TALE-VP64 VEGF9-3 (synthetic); details: VEGF-A ELISA, 293 cells
[54] = system: TALE-VP64 VEGF3-3 (synthetic); details: VEGF-A ELISA, 293 cells

Sequence: TCCGAACAGCTCCGCGCA (double strand) [Ntf3-2 site]
- activity (fold activation (approx)) [1]: > 1000

Sequence: TCCACCCCGCCTCCGG (double strand) [VEGF9-1 site]
- activity (fold activation) [2]: > 5.3

Sequence: TCCACTGTCCGCCGCCGG (double strand) [VEGF8-2 site]
- activity (fold activation) [3]: > 5.3

Sequence: TTGGGGGTGACCGCCG (double strand) [VEGF1-1 site]
- activity (fold activation) [4]: > 5.3

Sequence: TCCACTGTCCGCCGCCGGCCGGGG (double strand) [VEGF8-5 site]
- activity (fold activation) [5]: > 5.3

Sequence: TCCGTCAGCGCGACTGGTCAGCTGCG (double strand) [VEGF7-6 site]
- activity (fold activation) [6]: > 5.3

Sequence: TCCCAAGGGGGAGGGCTC (double strand) [VEGF6-2 site]
- activity (fold activation) [7]: > 5.3

Sequence: TCCCAAGGGGGAGGGCTCACGCCG (double strand) [VEGF6-5 site]
- activity (fold activation) [8]: > 5.3

Sequence: TCCACTGTCCGCCGCCGGCC (double strand) [VEGF8-3 site]
- activity (fold activation) [9]: > 5.3

Sequence: TGGACGCGGCGGCGAGCCGCGGGC (double strand) [VEGF5-5 site]
- activity (fold activation) [10]: > 5.3

Sequence: TCCCAAGGGGGAGGGC (double strand) [VEGF6-1 site]
- activity (fold activation) [11]: > 5.3

Sequence: TTGGGGGTGACCGCCGGAGCGCGG (double strand) [VEGF1-5 site]
- activity (fold activation) [12]: > 5.3

Sequence: TACCACCTCCTCCCCGGCCGGCGG (double strand) [VEGF3-5 site]
- activity (fold activation) [13]: > 5.3

Sequence: TACCACCTCCTCCCCGGCCGGC (double strand) [VEGF3-4 site]
- activity (fold activation) [14]: > 5.3

Sequence: TCCCGCAGCTGACCAGTCGCGCTG (double strand) [VEGF2-5 site]
- activity (fold activation) [15]: > 5.3

Sequence: TTCCCCTGCTGGGTAGTG (double strand) [Ntf3-3 site]
- activity (fold activation (approx)) [16]: > 1000

Sequence: TCCCAAGGGGGAGGGCTCACGCCGCG (double strand) [VEGF6-6 site]
- activity (fold activation) [17]: > 5.3

Sequence: TCCCCGGCCGGCGGCGGACA (double strand) [VEGF4-3 site]
- activity (fold activation) [18]: > 5.3

Sequence: TGGACGCGGCGGCGAGCC (double strand) [VEGF5-2 site]
- activity (fold activation) [19]: > 5.3

Sequence: TCCGTCAGCGCGACTGGTCA (double strand) [VEGF7-3 site]
- activity (fold activation) [20]: > 5.3

Sequence: TCCACCCCGCCTCCGGGCGCGG (double strand) [VEGF9-4 site]
- activity (fold activation) [21]: > 5.3

Sequence: TGGACGCGGCGGCGAGCCGC (double strand) [VEGF5-3 site]
- activity (fold activation) [22]: > 5.3

Sequence: TTCTGTTCACGGGACTCA (double strand) [Ntf3-1 site]
- activity (fold activation (approx)) [23]: > 1000

Sequence: TGGACGCGGCGGCGAGCCGCGG (double strand) [VEGF5-4 site]
- activity (fold activation) [24]: > 5.3

Sequence: TACCACCTCCTCCCCGGCCGGCGGCG (double strand) [VEGF3-6 site]
- activity (fold activation) [25]: > 5.3

Sequence: TACGCCTCAGACCTGATC (double strand) [Ntf3-4 site]
- activity (fold activation (approx)) [26]: > 1000

Sequence: TCCGTCAGCGCGACTGGT (double strand) [VEGF7-2 site]
- activity (fold activation) [27]: > 5.3

Sequence: TACCACCTCCTCCCCG (double strand) [VEGF3-1 site]
- activity (fold activation) [28]: > 5.3

Sequence: TCCCCGGCCGGCGGCGGACAGTGGAC (double strand) [VEGF4-6 site]
- activity (fold activation) [29]: > 5.3

Sequence: TTGGGGGTGACCGCCGGA (double strand) [VEGF1-2 site]
- activity (fold activation) [30]: > 5.3

Sequence: TACCACCTCCTCCCCGGC (double strand) [VEGF3-2 site]
- activity (fold activation) [31]: > 5.3

Sequence: TCCGTCAGCGCGACTGGTCAGCTG (double strand) [VEGF7-5 site]
- activity (fold activation) [32]: > 5.3

Sequence: TCCACCCCGCCTCCGGGCGCGGGCTC (double strand) [VEGF9-6 site]
- activity (fold activation) [33]: > 5.3

Sequence: TCCCCGGCCGGCGGCGGACAGTGG (double strand) [VEGF4-5 site]
- activity (fold activation) [34]: > 5.3

Sequence: TCCGTCAGCGCGACTGGTCAGC (double strand) [VEGF7-4 site]
- activity (fold activation) [35]: > 5.3

Sequence: TCCCCGGCCGGCGGCG (double strand) [VEGF4-1 site]
- activity (fold activation) [36]: > 5.3

Sequence: TCCCAAGGGGGAGGGCTCACGC (double strand) [VEGF6-4 site]
- activity (fold activation) [37]: > 5.3

Sequence: TCCACTGTCCGCCGCCGGCCGG (double strand) [VEGF8-4 site]
- activity (fold activation) [38]: > 5.3

Sequence: TCCCGCAGCTGACCAGTCGCGCTGAC (double strand) [VEGF2-6 site]
- activity (fold activation) [39]: > 5.3

Sequence: TCCCAAGGGGGAGGGCTCAC (double strand) [VEGF6-3 site]
- activity (fold activation) [40]: > 5.3

Sequence: TCCCCGGCCGGCGGCGGA (double strand) [VEGF4-2 site]
- activity (fold activation) [41]: > 5.3

Sequence: TCCACCCCGCCTCCGGGC (double strand) [VEGF9-2 site]
- activity (fold activation) [42]: > 5.3

Sequence: TCCACCCCGCCTCCGGGCGCGGGC (double strand) [VEGF9-5 site]
- activity (fold activation) [43]: > 5.3

Sequence: TCCCCGGCCGGCGGCGGACAGT (double strand) [VEGF4-4 site]
- activity (fold activation) [44]: > 5.3

Sequence: TGGACGCGGCGGCGAGCCGCGGGCAG (double strand) [VEGF5-6 site]
- activity (fold activation) [45]: > 5.3

Sequence: TCCACTGTCCGCCGCCGGCCGGGGAG (double strand) [VEGF8-6 site]
- activity (fold activation) [46]: > 5.3

Sequence: TTGGGGGTGACCGCCGGAGCGC (double strand) [VEGF1-4 site]
- activity (fold activation) [47]: > 5.3

Sequence: TTGGGGGTGACCGCCGGAGC (double strand) [VEGF1-3 site]
- activity (fold activation) [48]: > 5.3

Sequence: TCCACTGTCCGCCGCC (double strand) [VEGF8-1 site]
- activity (fold activation) [49]: > 5.3

Sequence: TGGACGCGGCGGCGAG (double strand) [VEGF5-1 site]
- activity (fold activation) [50]: > 5.3

Sequence: TCCCTCAATCTGGGAAAG (double strand) [Ntf3-5 site]
- activity (fold activation (approx)) [51]: > 1000

Sequence: TTGGGGGTGACCGCCGGAGCGCGGCG (double strand) [VEGF1-6 site]
- activity (fold activation) [52]: > 5.3

Sequence: TCCACCCCGCCTCCGGGCGC (double strand) [VEGF9-3 site]
- activity (fold activation) [53]: > 5.3

Sequence: TACCACCTCCTCCCCGGCCG (double strand) [VEGF3-3 site]
- activity (fold activation) [54]: > 5.3
